From US20140186294A1, “PHAGOCYTIC ACTIVITY AS A MARKER OF SYNUCLEINOPATHIC DISEASE” (ELAN PHARMACEUTICALS, INC., priority 2010, published 2014)
“Also recorded” adds a separate entry of the source.

How the values were obtained:
wild type microglia = experiment: Phagocytosis after INFγ overnight, wild type littermate microglia; type: cell-based, mouse; settings: beads 90 minutes
Description: (§1) To test a more physiologic system in which altered activation of LRRK2 and elevated synuclein may occur, we tested the effect of INFγ treatment on phagocytosis in wild type and synuclein-overexpressing microglia. As described above INFγ treatment naturally raises LRRK2 levels as well as increased LRRK2 phosphorylation and activity. Using our line 3 heterozygote X heterozygote crosses (generating homozygous alpha synuclein mice) in which, by culturing each pup separately wild type and synuclein overexpressing littermate cultures are generated. Microglia isolated from the various pups were exposed to INFγ overnight and which point […] beads were added for 90 minutes and phagocytosis was assessed while we were still blinded to the genotype of each culture. […] The ability of the environment to impact these pathways may help explain the incomplete penetrance and onset of Parkinson's symptoms observed with various familial forms of PD.

[1] = tested on: synuclein overexpressing cells; experiment: Phagocytosis after INFγ overnight, synuclein overexpressing microglia; type: cell-based, mouse; settings: beads 90 minutes
Description: as §1

microglia = experiment: Phagocytosis of 10 micron beads by INFγ treated microglia, with or without LRRK2 inhibitors; type: cell-based; settings: INFγ 24 hr
LRRK2 = LRRK2 mRNA, protein and kinase activity in INF-γ treated microglia; type: cell-based; settings: INF-γ treatment of microglia
Description: FIG. 16: INF-γ treatment of microglia induced LRRK2 mRNA transcript levels and protein levels by about 2 fold.
We have tested the effect of LRRK2 kinase inhibitors on phagocytosis in cells transformed with LRRK2 G2019S. We have a number of compounds known to inhibit LRRK2 kinase activity. Some of these compounds have enantiomers that are known inhibitors of either cFMS or PLK2 inhibitors but have minimal effect on LRRK2. Pairs of enantiomers one of which is known inhibitor of LRRK2 and one of which inhibits cFMS or PLK2 without substantially effect on LRRK2 can be used to measure LRRK2-specific effects on phagocytosis.

synuclein protein = experiment: Synuclein protein levels in IL-4 treated microglia from synuclein genomic mice; type: cell-based, mouse
Protocol: (§2) Human microglia were treated with IL-4 and synuclein transcript levels were measured by microarray and qPCR. Following IL-4 treatment synuclein levels were decreased by 50% in the three donors tested (FIG. 12). […] Microglia from synuclein genomic mice were treated with IL-4 for 24 hours, and while synuclein mRNA levels were decreased, protein levels were unaffected. Synuclein is turned over slowly, therefore 24 hours maybe too soon to see affects. To assess this microglia were stimulated with IL-4 for 48 hr at which time a 50% reduction in synuclein protein levels was observed. […] This may point to a direct effect of IL-4 signaling on the synuclein promoter.

SNARE complex = SNARE complex components in lysates of IL-4 treated microglia; type: cell-based, mouse; settings: IL-4 24 hr; wild type and synuclein OE cells
Protocol: To determine if IL-4 worked in part by altering SNARE or vesicle movement microglia from synuclein genomic mice were treated with IL-4 for 24 hr and lysates were probed for components of the SNARE complex. […] After addition of beads we saw induction of SNARE complexes and these were enhanced following IL-4 treatment.

microglial cells = experiment: Phagocytic activity screening assay, microglial cells; type: cell-based
Protocol: (§3) The components of a screening assay include cells with phagocytic activity, a test agent being screened and an entity that can be phagocytosed. Such an entity can be inert particles, such as latex beads, preferably of size 4-10 microns. The entity can also be apoptotic cells, such as Jurkat cells). Cells and inert entities are phagocytosed by different mechanisms, the former being receptor dependent. Usually the cells are contacted with the test agent first and incubated for a period (e.g., 1-48 hr) before adding the entity to be phagocytosis. Phagocytosis can be followed by light microscopy or flow cytometry among other methods detecting uptake of the entity being phagocytosed into the phagocytic cell. Methods for detection of phagocytosis can include any fluorescent based platform (e.g., flow cytometry, microscopy, array scan, or a Tr-fret, fluorescent plate reader) enzymatic, or colorimetric readout.
(§4) The screening assay can be performed on different types of phagocytic cells in parallel or sequentially. Some agents stimulate phagocytic activity in all or multiple cell types. Other agents may stimulate phagocytic activity in some cells type but not all.

synuclein mRNA [2] = experiment: Synuclein transcript levels in IL-4 treated human microglia (microarray, qPCR); type: cell-based; settings: IL-4 24 hours; microglia from three human donors
Protocol: (§5) FIG. 12: Microarray analysis of microglia isolated from three human donors were stimulated with IL-4 for 24 hours and microarray experiment performed and results were confirmed by qPCR. qPCR was also performed on microglia isolated from IL-4 treated line 26/synuclein null pups.
as §2

H4 neuronal cells = experiment: Phagocytic activity screening assay, H4 neuronal cells; type: cell-based, human; settings: H4 neuronal cells (lack an IL-4 receptor)
Description: The screening and diagnostic assays employ cells with phagocytic activity, sometimes referred to as phagocytic cells. The cells can be human, or other mammalian, particular rodent or mouse. The cells can be obtained from a subject with synucleinopathic disease (usually a human) or a transgenic animal model of disease (e.g., a mouse). The cells can also be a cell line transformed to express an alpha synuclein gene. The cells include microglial cells or peripheral macrophages or polymorphonuclear cells or other phagocytic cells. Microglia can be obtained by biopsy or differentiating or trans-differentiation of embryonic stems cells, bone marrow, induced pluripotent or other stem or pluripotent cell sources from a subject or transgenic animal model. Such phagocytic cells have higher intracellular levels of alpha synuclein that control cells from an undiseased individual. […]
The components of a screening assay include cells with phagocytic activity, a test agent being screened and an entity that can be phagocytosed. […] Methods for detection of phagocytosis can include any fluorescent based platform (e.g., flow cytometry, microscopy, array scan, or a Tr-fret, fluorescent plate reader) enzymatic, or colorimetric readout. […]

[3] = tested on: synuclein overexpressing microglia; experiment: Bead phagocytosis (phagocytic index) of IL-4 treated microglia from synuclein genomic lines 3, 26, 422; type: cell-based, mouse; settings: IL-4 24 hours, then beads 90 minutes
Protocol: FIG. 13: Wild type or synuclein overexpressing microglia isolated from line 3, 26, or 422 littermate pups cells were treated for 24 hours with IL-4 and the fed beads for 90 minutes and phagocytic index determined.
To investigate the role of endogenous synuclein on microglia function, we utilized a transgenic mouse model in which wild type or the E46K mutated form of human synuclein was overexpressed from a human bacterial artificial chromosome (bac). The bac construct contained the synuclein promoter and upstream sequences (45 kbp), as well as downstream 3′ sequences ([…]). Three animal lines of interest were identified; line 422 expresses wild type synuclein and two additional lines, line 26 and line 3, express the mutant E46K form. Altered microglia function associated with over expression of human synuclein was assessed in cells isolated from line 26 P1-P3 pups due in part to the high synuclein expression observed in this line. […] Significant overexpression of human synuclein in the murine microglia allowed us to assess the consequence of elevated synuclein levels on microglia function. […] Although the requirement for receptor engagement differs, both targets require activation of intracellular signaling, actin rearrangement, and mobilization of membrane to the phagocytic cup. […]

peripheral macrophages = experiment: Phagocytic activity screening assay, peripheral macrophages; type: cell-based
Protocol: as §3, §4

synuclein mRNA [4] = experiment: Synuclein mRNA (qPCR) in IL-4 treated line 26/synuclein null microglia; type: cell-based, mouse
Protocol: as §5, §2

Row | Molecule | phagocytosis (wild type microglia) | phagocytosis [1] | phagocytosis of 10 micron beads (microglia) | induction of LRRK2 mRNA transcript levels (LRRK2) | induction of LRRK2 protein levels (LRRK2) | synuclein protein levels (synuclein protein; IL-4 for 24 hours) | reduction in synuclein protein levels (synuclein protein; IL-4 for 48 hr) | SNARE complex components in lysates (SNARE complex) | stimulating phagocytic activity (microglial cells) | reduction in synuclein mRNA levels (synuclein mRNA [2]) | stimulating phagocytic activity (H4 neuronal cells) | phagocytosis (phagocytic index) [3] | phagocytosis (phagocytic index) ([3]; listed as 11-4) | stimulating phagocytic activity (peripheral macrophages) | reduction in synuclein mRNA levels (synuclein mRNA [4]; IL-4 treated line 26/synuclein null pup microglia, qPCR) | synuclein mRNA levels (synuclein mRNA [4]; line 26/synuclein null genomic microglia, IL-4)
1 | INFγ: interferon gamma, described as agonist of LRRK2 | enhanced phagocytosis | even further reduction in phagocytosis | increased phagocytosis | about 2 fold | about 2 fold |  |  |  |  |  |  |  |  |  |  | 
2 | IL-4: interleukin IL-4 (Swiss Prot P05112), cytokine used to treat microglia (protein, UniProt P05112 25-153, looked up) Interleukin-4: HKCDITLQEIIKTLNSLTEQKTLCTELTVTDIFAASKNTTEKETFCRAATVLRQFYSHHEKDTRCLGATAQQFHRHKQLIRFLKRLDRNLWGLAGLNSCPVKEANQSTLENFLERLKTIMREKYSKCSS |  |  |  |  |  | unaffected; also recorded: did not decrease synuclein protein | 50% | increased monomer SNAP23 Syntaxin4, and SNAP23 snare complex | effective | 50% | not in H4 neuronal cells | rescue the phagocytic defect | restored phagocytosis | effective | 50% | reduced synuclein mRNA levels
